Experimental data published in patent US20210260070A1, “LYSIN CF-301 RESENSITIZES METHICILLIN-RESISTANT STAPHYLOCOCCUS AUREUA (MRSA) TO PENICILLIN DERIVATIVES AND FIRST GENERATION CEPHALOSPORINS” (priority 2018, published 2021).

Assays:
MRSA strain MW2 = assay: 21-day in vitro serial passage resistance assay; assay type: cell-based, Staphylococcus aureus
Text: Serial passage resistance studies were undertaken to assess the ability of PlySs2 lysin to suppress the emergence of antibiotic resistance when used in combination with oxacillin used to treat S. aureus infections. Methods used to perform serial passage experiments are described in Palmer et al., Genetic basis for daptomycin resistance in enterococci, ANTIMICROBIAL AGENTS AND CHEMOTHERAPY (2011); 55:3345-56 and Berti et al., Altering the Proclivity towards Daptomycin Resistance in Methicillin-Resistant Staphylococcus aureus Using Combinations with Other Antibiotics, ANTIMICROBIAL AGENTS AND CHEMOTHERAPY (2012); 56:5046-53, respectively.
21-day in vitro serial passage resistance assays were performed to determine the impact of PlySs2 (alone) on oxacillin and PlySs2 MIC values and the potential for a “seesaw” effect similar to that previously shown, whereby exposures to daptomycin or vancomycin were accompanied by increased susceptibility (and the potential for resensitization) to β-lactam antibiotics [Renzoni et al., Molecular Bases Determining Daptomycin Resistance-Mediated Resensitizatoin to β-Lactams (Seesaw Effect) in Methicillin-Resistant Staphylococcus aureus, ANTIMICROBIAL AGENTS AND CHEMOTHERAPY (2017) 61(1):e01634-16 and Werth et al., Evaluation of Ceftaroline Activity against Heteroresistant Vancomycin-Intermediate Staphylococcus aureus and Vancomycin-Intermediate Methicillin-Resistant S. aureus Strains in an In Vitro Pharmacokinetic/Pharmacodynamic Model: Exploring the ‘Seesaw Effect’, ANTIMICROBIAL AGENTS AND CHEMOTHERAPY (2013); 57(6):2664-68].
MRSA strain MW2 was serially passaged in triplicate on a daily basis for 21 days using both a 1.1-fold and 2-fold PlySs2 dilution series. As shown in FIGS. 1-3, only modest 2-fold shifts in PlySs2 MIC values were observed. […] This seesaw effect, i.e., a decrease in MRSA's susceptibility to PlySs2 accompanied by a paradoxical increase in susceptibility to oxacillin, indicates PlySs2 lysin's ability to resensitize MRSA to oxacillin. Three MRSA MW2 strain isolates were taken just prior (days 16, 11, and 8 for FIGS. 1-3, respectively) and just after (days 17, 12, and 9 for FIGS. 1-3, respectively) the observed MIC shift for whole genome sequencing.

[1] = test system: nine different MRSA strains; assay: Broth microdilution checkerboard assays, summary over the panel; assay type: cell-based, Staphylococcus aureus; details: each of the nine MRSA strains; breakpoint MIC ≤2 sensitive
Text: In some embodiments, the present lysin polypeptides reduce the minimum inhibitory concentration (MIC) of an antibiotic. Any known method to assess MIC may be used. In some embodiments, a checkerboard assay is used to determine the effect of a lysin on antibiotic concentration. The checkerboard assay is based on a modification of the CLSI method for MIC determination by broth microdilution (See Clinical and Laboratory Standards Institute (CLSI), CLSI. 2015. Methods for Dilution Antimicrobial Susceptibility Tests for Bacteria That Grow Aerobically; Approved Standard-10th Edition. Clinical and Laboratory Standards Institute, Wayne, Pa., which is herein incorporated by reference in its entirety and Ceri et al. 1999. J. Clin. Microbiol. 37: 1771-1776, which is also herein incorporated by reference in its entirety).
Checkerboards are constructed by first preparing columns of e.g., a 96-well polypropylene microtiter plate, wherein each well has the same amount of antibiotic diluted 2-fold along the horizontal axis. […] The lysin and antibiotic dilutions are then combined, so that each column has a constant amount of antibiotic and doubling dilutions of lysin, while each row has a constant amount of lysin and doubling dilutions of antibiotic. Each well thus has a unique combination of lysin and antibiotic. Bacteria are added to the drug combinations at a given concentration. […] Summation fractional inhibitory concentrations (ΣFICs) are calculated for each drug and the minimum ΣFIC value (ΣFICmin) is used to determine the effect of the lysin/antibiotic combination.
A step-wise approach was used to evaluate PlySs2 as a resensitizing agent. First, broth microdilution checkerboard assays were used to determine fractional inhibitory concentration index (FICI) values for combinations of PlySs2 with three β-lactam antibiotics [oxacillin (OXA), nafcillin (NAF), and cefazoline (CFZ)] against nine different MRSA strains. […] Representative single agent MICs are also shown, determined for each agent alone (initial) and in combinations (final). […]

MRSA = assay: Standard rabbit model of MRSA infective endocarditis (IE), CFU in valvular vegetations; assay type: in vivo, Staphylococcus aureus
Protocol: An ex vivo analysis was performed on tissue samples recovered after PlySs2 treatment in a standard rabbit model of MRSA infective endocarditis (IE), as disclosed in Xiong et al., Comparative efficacy of telavancin and daptomycin in experimental endocarditis due to multi-clonotype MRSA strains, J. ANTIMIC. CHEMO. (2016); 71(1):2890-94. The standard rabbit IE model was used to confirm the impact of PlySs2 treatment on oxacillin MICs. Four days after treatment with a single-dose of PlySs2 (0.18 mg/kg to 1.4 mg/kg) in the IE model, isolates were recovered from valvular vegetations and plated on TSAB (non-selective condition, Tables 3 and 4) and TSAB supplemented with PlySs2 over a range of concentrations (selective conditions, Tables 5 and 6). MIC values of the MRSA isolates were determined for both PlySs2 and oxacillin. Tables 3 and 4 below show the MICs calculated for PlySs2 and oxacillin, respectively, for valvular vegetations subject to the non-selective conditions.

In the case of `Cc1onc(-c2ccccc2)c1C(=O)N[C@@H]1C(=O)N2[C@@H]1SC(C)(C)[C@@H]2C(=O)O` [OXA, oxacillin], the “OXA MIC after shift” value (MRSA strain MW2; MW2, serial passage in PlySs2, after the shift) is reported as 16 µg/mL, the “OXA MIC before shift” value (MRSA strain MW2; MW2, serial passage in PlySs2, before the shift) is reported as 64 µg/mL and the “OXA MIC fold change” value (MRSA strain MW2; MW2 after PlySs2 exposure in serial passage) is reported as 0.25 fold. For the same molecule, the “MIC in synergistic combination with PlySs2 relative to breakpoint” value [1] was “below breakpoint values”.

B1: PlySs2: bacteriophage lysin derived from Streptococcus suis, amino acid sequence SEQ ID NO: 1 (245 residues) (protein, listed as Streptococcus suis)
chain: MTTVNEALNNVRAQVGSGVSVGNGECYALASWYERMISPDATVGLGAGVGWVSGAIGDTISAKNIGSSYNWQANGWTVSTSGPFKAGQIVTLGATPGNPYGHVVIVEAVDGDRLTILEQNYGGKRYPVRNYYSAASYRQQVVHYITPPGTVAQSAPNLAGSRSYRETGTMTVTVDALNVRRAPNTSGEIVAVYKRGESFDYDTVIIDVNGYVWVSYIGGSGKRNYVATGATKDGKRFGNAWGTFK
With B1 the “Log10 CFU/g of Vegetation” value (MRSA; PlySs2 0.18 mg/kg, TSAB supplemented with PlySs2, 128 (unit not given)) was 4.6 ± 0.7 Log10 CFU/g, the “Log10 CFU/g of Vegetation” value (MRSA; PlySs2 0.18 mg/kg, TSAB supplemented with PlySs2, column 16 (unit not printed)) was 7.1 ± 0.1 Log10 CFU/g and the “Log10 CFU/g of Vegetation” value (MRSA; PlySs2 0.18 mg/kg, TSAB supplemented with PlySs2, column 32 (unit not printed)) was 7.1 ± 0.1 Log10 CFU/g. The “Log10 CFU/g of Vegetation” value (MRSA; PlySs2 0.18 mg/kg, TSAB supplemented with PlySs2, column 64 (unit not given)) was 6.6 ± 0.9 Log10 CFU/g, the “Log10 CFU/g of Vegetation” value (MRSA; PlySs2 0.35 mg/kg, TSAB supplemented with PlySs2, 128 (unit not given)) was 3.4 ± 1.3 Log10 CFU/g and the “Log10 CFU/g of Vegetation” value (MRSA; PlySs2 0.35 mg/kg, TSAB supplemented with PlySs2, column 16 (unit not printed)) was 6.9 ± 0.2 Log10 CFU/g. The “Log10 CFU/g of Vegetation” value (MRSA; PlySs2 0.35 mg/kg, TSAB supplemented with PlySs2, column 32 (unit not printed)) was 6.4 ± 0.5 Log10 CFU/g, the “Log10 CFU/g of Vegetation” value (MRSA; PlySs2 0.35 mg/kg, TSAB supplemented with PlySs2, column 64 (unit not given)) was 5.5 ± 0.6 Log10 CFU/g and the “Log10 CFU/g of Vegetation” value (MRSA; PlySs2 0.7 mg/kg, TSAB supplemented with PlySs2, 128 (unit not given)) was less than 2.1 ± 0.1 Log10 CFU/g. For the same molecule, the “Log10 CFU/g of Vegetation” value (MRSA; PlySs2 0.7 mg/kg, TSAB supplemented with PlySs2, column 16 (unit not printed)) was 6.7 ± 0.1 Log10 CFU/g, the “Log10 CFU/g of Vegetation” value (MRSA; PlySs2 0.7 mg/kg, TSAB supplemented with PlySs2, column 32 (unit not printed)) was 5.7 ± 1.1 Log10 CFU/g and the “Log10 CFU/g of Vegetation” value (MRSA; PlySs2 0.7 mg/kg, TSAB supplemented with PlySs2, column 64 (unit not given)) was 3.8 ± 1.8 Log10 CFU/g. For the same molecule, the “Log10 CFU/g of Vegetation” value (MRSA; PlySs2 1.4 mg/kg, TSAB supplemented with PlySs2, 128 (unit not given)) was 2.8 ± 1.2 Log10 CFU/g, the “Log10 CFU/g of Vegetation” value (MRSA; PlySs2 1.4 mg/kg, TSAB supplemented with PlySs2, column 16 (unit not printed)) was 7.1 ± 0.06 Log10 CFU/g and the “Log10 CFU/g of Vegetation” value (MRSA; PlySs2 1.4 mg/kg, TSAB supplemented with PlySs2, column 32 (unit not printed)) was 5.9 ± 0.03 Log10 CFU/g. For the same molecule, the “Log10 CFU/g of Vegetation” value (MRSA; PlySs2 1.4 mg/kg, TSAB supplemented with PlySs2, column 64 (unit not given)) was 4.2 ± 1.7 Log10 CFU/g, the “Log10 CFU/g of Vegetation” value (MRSA; single dose PlySs2 0.18 mg/kg, four days after treatment, TSAB non-selective (0)) was 8.65 ± 0.58 Log10 CFU/g and the “Log10 CFU/g of Vegetation” value (MRSA; single dose PlySs2 0.35 mg/kg, four days after treatment, TSAB non-selective (0)) was 8.17 ± 0.58 Log10 CFU/g. The “Log10 CFU/g of Vegetation” value (MRSA; single dose PlySs2 0.7 mg/kg, four days after treatment, TSAB non-selective (0)) was 7.93 ± 0.12 Log10 CFU/g, the “Log10 CFU/g of Vegetation” value (MRSA; single dose PlySs2 1.4 mg/kg, four days after treatment, TSAB non-selective (0)) was 8.24 ± 0.02 Log10 CFU/g and the “Shift in PlySs2 MIC values” (MRSA strain MW2; MW2 passaged daily for 21 days in 1.1-fold and 2-fold PlySs2 dilution series, triplicate) was 2 fold.
